Test results published in patent US20160355590A1.

Molecular target: HLA-DR on Raji cells, the Lym-1 antigen (HLA-Dr10) (human)
Test: cell-based or functional assay

For Lym-1 CAR (on primary human T-cells), the lysis of target Raji cells (LDH cytotoxicity assay) was 22%.
